Source: patent US20140242093A1, “METHODS AND COMPOSITIONS FOR MODULATING THE INNATE IMMUNE RESPONSE AND/OR MYOGENESIS IN A MAMMALIAN SUBJECT” (FRED HUTCHINSON CANCER RESEARCH CENTER, priority 2011, published 2014)
Where “and” joins values, the source holds several entries; their conditions need not be identical. Equal values may be shown once.

Experiments:
[1] = system: control myoblasts in differentiation media
Experimental: Cultured control myoblasts were grown to confluence and switched to differentiation media (as described in Snider et al., 2010). 24 hours later, media was refreshed and either supplemented with 1 μM human β-defensin 3 or equivalent volume of water. Media was refreshed again at 48 hours. Cells were differentiated for a total of 72 hours. Quadruplicate samples were analyzed by expression microarrays as described above.

[2] = system: Cultured control human myoblasts; assay: Beta-defensin 3 and innate immune response, real-time qPCR of IFIH1, ISG20, DEFB103; assay type: cell-based
Experimental: Cultured control human myoblasts were grown to 80% confluence and infected with equivalent titers of lenti-GFP, lenti-DUX4-s and lenti-DUX4-fl in growth media supplemented with 8 μg/mL polybrene. Expression of innate immune responsive genes including IFIH1 (MDA5), ISG20 and DEFB103 were assessed by real-time qPCR as previously described at 24 hours (primer sequences below). For conditioned media, cells were infected with lenti-DUX4-fl for 12 hours, thoroughly washed 3 times with PBS and switched to fresh growth media to condition for 12 hours. Control conditioned media was produced from cells not infected with any lentivirus. Myoblasts were infected with lenti-GFP in either control conditioned media, lenti-DUX4-fl conditioned media or regular growth media supplemented with 1 μM human β-defensin 3 (Peptides International, Louisville, Ky.). Expression of innate immune responsive genes were examined after 24 hours.

[3] = system: Cultured primary muscle cells; assay: Beta-defensin 3 and myotube formation, immunostaining for myosin heavy chain; assay type: cell-based; conditions: 0.5 uM, 72 hours in differentiation medium
Experimental: Cultured primary muscle cells were cultured in differentiation medium for 72 hours in the presence or absence of 0.5 uM Human β-defensin 3.

[4] = system: Cultured control myoblasts; assay: Beta-defensin 3 on myoblasts in growth media, expression arrays and MSTN qPCR; assay type: cell-based, human
Experimental: Cultured control myoblasts were grown at 50% confluence and treated with 1 μM human β-defensin 3. Equivalent volume of vehicle (water) was added to myoblasts for the control condition. Quadruplicate samples of control- and DEFB103-treated myoblasts were assessed for global expression changes on HumanHT-12 v4 Expression BeadChip Whole Genome arrays and analyzed as described in main methods. Differential expression of myostatin (MSTN) was confirmed by real-time qPCR.

B1: DEFB103: human β-defensin 3 peptide (Peptides International), polypeptide SEQ ID NO:178 (peptide, listed as Homo sapiens)
chain: MRIHYLLFALLFLFLVPVPGHGGIINTLQKYYCRVRGGRCAVLSCLPKEEQIGKCSTRGRKCCRRKK
[1]
  log2 FC defMT/MT, CYP2J2: −1.05
[1]; RT-qPCR, FIG. 11
  expression of muscle differentiation genes (ACTA1, CKM, CASQ2, MYH2, TNNT3): inhibits the expression of genes necessary for normal muscle differentiation
[1]; differentiating muscle cells vs untreated control
  number of genes with reduced expression: 44 genes
[1]; gene ACTA1, log2 ratio of expression in DEFB103 treated muscle cells compared to control muscle cells, differentiation media
  log2 FC defMT/MT, ACTA1: −2.65
[1]; gene AIF1L, DEFB103 treated vs control differentiating muscle cells
  log2 FC defMT/MT, AIF1L: −1.16
[1]; gene AKR1C2, DEFB103 treated vs control differentiating muscle cells
  log2 FC defMT/MT, AKR1C2: 1.41
[1]; gene ANGPTL4, DEFB103 treated vs control differentiating muscle cells
  log2 FC defMT/MT, ANGPTL4: 1.21
[1]; gene ARPP-21, DEFB103 treated vs control differentiating muscle cells
  log2 FC defMT/MT, ARPP-21: −1.06
[1]; gene ATP2A2, DEFB103 treated vs control differentiating muscle cells
  log2 FC defMT/MT, ATP2A2: −1.04
[1]; gene CACNG1, DEFB103 treated vs control differentiating muscle cells
  log2 FC defMT/MT, CACNG1: −1.58
[1]; gene CASQ2, DEFB103 treated vs control differentiating muscle cells
  log2 FC defMT/MT, CASQ2: −2.00
[1]; gene CKB, DEFB103 treated vs control differentiating muscle cells
  log2 FC defMT/MT, CKB: −1.16
[1]; gene CKM, DEFB103 treated vs control differentiating muscle cells
  log2 FC defMT/MT, CKM: −1.90
[1]; gene CTGF, DEFB103 treated vs control differentiating muscle cells
  log2 FC defMT/MT, CTGF: −1.12
[1]; gene DKK1, DEFB103 treated vs control differentiating muscle cells
  log2 FC defMT/MT, DKK1: 1.22
[1]; gene ENO3 (two array entries), DEFB103 treated vs control differentiating muscle cells
  log2 FC defMT/MT, ENO3: −1.51 and −1.47
[1]; gene FOLR1 (two array entries), DEFB103 treated vs control differentiating muscle cells
  log2 FC defMT/MT, FOLR1: −1.10 and −1.03
[1]; gene HBEGF, DEFB103 treated vs control differentiating muscle cells
  log2 FC defMT/MT, HBEGF: −1.10
[1]; gene HES6, DEFB103 treated vs control differentiating muscle cells
  log2 FC defMT/MT, HES6: −1.24
[1]; gene HFE2, DEFB103 treated vs control differentiating muscle cells
  log2 FC defMT/MT, HFE2: −1.04
[1]; gene HMOX1, DEFB103 treated vs control differentiating muscle cells
  log2 FC defMT/MT, HMOX1: 1.66
[1]; gene HRC, DEFB103 treated vs control differentiating muscle cells
  log2 FC defMT/MT, HRC: −1.40
[1]; gene IL32, DEFB103 treated vs control differentiating muscle cells
  log2 FC defMT/MT, IL32: −1.03
[1]; gene LMCD1, DEFB103 treated vs control differentiating muscle cells
  log2 FC defMT/MT, LMCD1: −1.03
[1]; gene LOC389827 (two array entries), DEFB103 treated vs control differentiating muscle cells
  log2 FC defMT/MT, LOC389827: −1.48 and −1.38
[1]; gene MME, DEFB103 treated vs control differentiating muscle cells
  log2 FC defMT/MT, MME: 1.27
[1]; gene MT1X, DEFB103 treated vs control differentiating muscle cells
  log2 FC defMT/MT, MT1X: 1.65
[1]; gene MYBPH, DEFB103 treated vs control differentiating muscle cells
  log2 FC defMT/MT, MYBPH: −1.49
[1]; gene MYH3, DEFB103 treated vs control differentiating muscle cells
  log2 FC defMT/MT, MYH3: −2.20
[1]; gene MYH7, DEFB103 treated vs control differentiating muscle cells
  log2 FC defMT/MT, MYH7: −1.73
[1]; gene MYH8, DEFB103 treated vs control differentiating muscle cells
  log2 FC defMT/MT, MYH8: −2.62
[1]; gene MYL1 (two array entries), DEFB103 treated vs control differentiating muscle cells
  log2 FC defMT/MT, MYL1: −1.18 and −1.11
[1]; gene MYL6B, DEFB103 treated vs control differentiating muscle cells
  log2 FC defMT/MT, MYL6B: −1.00
[1]; gene MYLPF, DEFB103 treated vs control differentiating muscle cells
  log2 FC defMT/MT, MYLPF: −1.53
[1]; gene MYOM1, DEFB103 treated vs control differentiating muscle cells
  log2 FC defMT/MT, MYOM1: −1.20
[1]; gene NDRG1, DEFB103 treated vs control differentiating muscle cells
  log2 FC defMT/MT, NDRG1: 1.01
[1]; gene PLIN2 (two array entries), DEFB103 treated vs control differentiating muscle cells
  log2 FC defMT/MT, PLIN2: 1.61 and 1.79
[1]; gene PRAGMIN, DEFB103 treated vs control differentiating muscle cells
  log2 FC defMT/MT, PRAGMIN: −1.10
[1]; gene RASSF4, DEFB103 treated vs control differentiating muscle cells
  log2 FC defMT/MT, RASSF4: −1.03
[1]; gene SMPX, DEFB103 treated vs control differentiating muscle cells
  log2 FC defMT/MT, SMPX: −1.76
[1]; gene SMYD1, DEFB103 treated vs control differentiating muscle cells
  log2 FC defMT/MT, SMYD1: −1.07
[1]; gene TNNC1, DEFB103 treated vs control differentiating muscle cells
  log2 FC defMT/MT, TNNC1: −1.45
[1]; gene TNNC2, DEFB103 treated vs control differentiating muscle cells
  log2 FC defMT/MT, TNNC2: −1.49
[1]; gene TNNT1, DEFB103 treated vs control differentiating muscle cells
  log2 FC defMT/MT, TNNT1: −1.00
[1]; gene TNNT3 (two array entries), DEFB103 treated vs control differentiating muscle cells
  log2 FC defMT/MT, TNNT3: −1.55 and −1.52
[1]; gene TPM2, DEFB103 treated vs control differentiating muscle cells
  log2 FC defMT/MT, TPM2: −1.41
[1]; gene VASH2, DEFB103 treated vs control differentiating muscle cells
  log2 FC defMT/MT, VASH2: −1.22
[1]; gene ZFP106, DEFB103 treated vs control differentiating muscle cells
  log2 FC defMT/MT, ZFP106: −1.09
[2]; RT-qPCR of IFIH1 and ISG20, FIG. 8
  induction of innate immune genes by lenti-GFP: inhibited the induction of the innate immune response to lenti-GFP
[2]; copies of viral integrants and GFP mRNA
  viral entry and transduction: did not prevent viral entry and transduction
[3]
  muscle cell fusion and myosin heavy chain expression: inhibits muscle cell fusion and expression of myosin heavy chain
[4]; RT-qPCR, myoblasts
  mRNA for myostatin: increased the mRNA for myostatin
[4]; expression arrays, 2-fold change threshold
  gene expression changes in myoblasts: did not alter the expression of any genes
[4]; expression arrays, myoblasts
  myostatin upregulation: approximately 50%
